Measurements reported in the supplement of paper PMC7877785.
± gives the uncertainty stated by the source.

Assay: self-splicing fitness, log relative to wild type (ln ratio); higher = more splicing; Tetrahymena group I intron in knt gene, E. coli kanamycin selection, DiMSum; sequences stand for … in CUCUCU…GGAGGGAAAAGUUAUCAGGCAUGCACCUGGUAGCUAGUCUUUAAACCAAUAGAUUGCAUCGGUUUAAAAGGCAAGACCGUCAAAUUGCGGGAAAGGGGUCAACAGCCGUUCAGUACCAAGUCUCAGGGGAAACUUUGAGAUGGCCUUGCAAAGGGUAUGGUAAUAAGCUGACGGACAUGGUCCUAACCACGCAGCCAAGUCCUAAGUCAACAGAUCUUCUGUUGAUAUGGAUGCAGUUCACAGACUAAAUGUCGGUCGGGGAAGAUGUAUUCUUCUCAUAAGAUAUAGUCGGACCUCUCCUUAAUGGGAGCUAGCGGAUGAAGUGAUGCAACACUGGAGCCGCUGGGAACUAAUUUGUAUGCGAAAGUAUAUUGAUUAGUUUUGGAGUACUCGUGGUCG
Summary of the method: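 Colonies from six replicate transformations of E. coli BL21(DE3) were pooled and amplicon-sequenced on an Illumina HiSeq 2500. The library placed an intron with all eight P1ex-region nucleotides randomised inside the knt kanamycin-resistance gene on pET-22b(+), and cells grew overnight at 37°C or 30°C on LB agar with or without 25 μg/mL kanamycin (plus 100 μg/mL carbenicillin, 50 μM IPTG, 0.2% rhamnose). Fitness is the DiMSum error-weighted combination of wild-type-normalised replicate fold changes, kanamycin versus none.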

Sequence	self-splicing fitness (ln) (30 °C)	self-splicing fitness (ln) (37 °C)
UCCAAGCAAUAUUACGUCUU	-3.92 ± 0.19	-1.46 ± 0.14
AUUCAGCAAUAUUACGACCA	-0.206 ± 0.26	0.501 ± 0.29
UACAAGCAAUAUUACGAGGU	-4.06 ± 0.28	-1.94 ± 0.28
ACGAAGCAAUAUUACGCAGA	-1.42 ± 0.12	-1.1 ± 0.14
AUUGAGCAAUAUUACGCAAC	-3.42 ± 0.26	-2.26 ± 0.39
GCGGAGCAAUAUUACGUAAA	-3.53 ± 0.31	-1.97 ± 0.35
GCCUAGCAAUAUUACGACUU	-1.37 ± 0.077	-0.298 ± 0.079
GUGGAGCAAUAUUACGCGUC	-2.82 ± 0.35	-1.76 ± 0.47
AUUAAGCAAUAUUACGGGAA	-2.09 ± 0.26	-1.43 ± 0.23
AGUGAGCAAUAUUACGUGCA	-2.06 ± 0.14	-0.509 ± 0.13
AAACAGCAAUAUUACGCUGU	-3.85 ± 0.14	-1.89 ± 0.096
ACUGAGCAAUAUUACGAACU	-1.92 ± 0.13	-1.24 ± 0.16
UGGGAGCAAUAUUACGGAUA	-2.61 ± 0.32	-2.52 ± 0.32
GAAAAGCAAUAUUACGACCC	0.23 ± 0.13	-0.182 ± 0.18
UCAAAGCAAUAUUACGACGU	-0.985 ± 0.063	0.289 ± 0.069
GAUUAGCAAUAUUACGUGCU	-2.46 ± 0.18	-1.26 ± 0.14
GCUAAGCAAUAUUACGCGAC	-2.11 ± 0.14	-1.54 ± 0.17
UGUAAGCAAUAUUACGUGGA	-2.52 ± 0.25	-1.78 ± 0.22
AGCGAGCAAUAUUACGUAGA	-3.17 ± 0.24	-2.85 ± 0.29
UGGAAGCAAUAUUACGCAGG	-3.1 ± 0.42	-1.47 ± 0.4
CUCAAGCAAUAUUACGUUAU	-3.81 ± 0.15	-3.39 ± 0.2
UAUCAGCAAUAUUACGCUCG	-0.0189 ± 0.079	0.35 ± 0.12
GAUGAGCAAUAUUACGAAGA	-3.25 ± 0.17	-0.937 ± 0.14
AUGAAGCAAUAUUACGGGUC	-3.75 ± 0.18	-2.63 ± 0.23
UAACAGCAAUAUUACGGACU	-1.02 ± 0.064	-0.504 ± 0.089

Sequence	self-splicing fitness (ln) (30 °C)	self-splicing fitness (ln) (37 °C)
CCCAAGCAAUAUUACGCUAG	-2.63 ± 0.19	-2.72 ± 0.31
AAUAAGCAAUAUUACGUGUG	-1.05 ± 0.077	-1.57 ± 0.1
UAGUAGCAAUAUUACGCCAA	-3.28 ± 0.29	-2.02 ± 0.24
UAUUAGCAAUAUUACGAUUA	0.102 ± 0.13	-0.402 ± 0.12
AGGCAGCAAUAUUACGAGAA	-3.3 ± 0.41	-2.09 ± 0.36
GGGCAGCAAUAUUACGAAGG	-3.32 ± 0.27	-2.45 ± 0.35
UCCGAGCAAUAUUACGUAAC	–	-0.912 ± 0.35
CCUAAGCAAUAUUACGCUUU	-3.09 ± 0.23	-2.17 ± 0.26
UACAAGCAAUAUUACGGAGG	-3.94 ± 0.22	-2.03 ± 0.16
GCACAGCAAUAUUACGUACC	-1.47 ± 0.096	-0.717 ± 0.13
UGCUAGCAAUAUUACGGCCG	-0.359 ± 0.12	0.337 ± 0.14
UAGGAGCAAUAUUACGUACC	-2.66 ± 0.32	-2.69 ± 0.43
UUCGAGCAAUAUUACGUCCU	-3.78 ± 0.47	-2.4 ± 0.41
UCGCAGCAAUAUUACGAGGC	-3.12 ± 0.24	-3.16 ± 0.26
AGCGAGCAAUAUUACGGACA	-2.53 ± 0.37	-2.94 ± 0.34
GAGCAGCAAUAUUACGUCAG	-3.23 ± 0.21	-2.12 ± 0.26
UAUGAGCAAUAUUACGAAGU	-4.08 ± 0.42	-1.93 ± 0.23
UCAUAGCAAUAUUACGUCUC	-1.43 ± 0.32	–
GCUGAGCAAUAUUACGUGAG	-1.73 ± 0.11	-1.28 ± 0.095
UCGGAGCAAUAUUACGGGAG	–	-2.24 ± 0.44
GAUUAGCAAUAUUACGAGUG	-1.25 ± 0.094	-0.616 ± 0.1
UUAUAGCAAUAUUACGUUUC	-4.48 ± 0.3	-3.31 ± 0.32
UAGAAGCAAUAUUACGUUUC	-2.28 ± 0.16	-0.293 ± 0.17
CCAGAGCAAUAUUACGGUAC	-3.29 ± 0.17	-1.52 ± 0.26
AUUAAGCAAUAUUACGCCUC	-2.77 ± 0.18	-1.42 ± 0.16

Sequence	self-splicing fitness (ln) (30 °C)	self-splicing fitness (ln) (37 °C)
GUUAAGCAAUAUUACGGGGU	-2.73 ± 0.28	-2.88 ± 0.35
CAUCAGCAAUAUUACGCUAG	-0.614 ± 0.075	-0.102 ± 0.093
GGCGAGCAAUAUUACGGCUA	-0.343 ± 0.13	0.287 ± 0.14
AGUCAGCAAUAUUACGGGAU	-1.04 ± 0.079	-1.51 ± 0.15
AACCAGCAAUAUUACGAACG	-1.27 ± 0.08	-1.25 ± 0.089
GACUAGCAAUAUUACGCAGA	-2.34 ± 0.16	-1.62 ± 0.17
AUACAGCAAUAUUACGACUG	-1.52 ± 0.077	-0.848 ± 0.097
ACUGAGCAAUAUUACGGUAC	-3.19 ± 0.48	–
UACCAGCAAUAUUACGUCGC	-2.97 ± 0.17	-1.88 ± 0.2
CAUAAGCAAUAUUACGAUAC	–	-2.28 ± 0.34
CCGCAGCAAUAUUACGAAGG	-3.52 ± 0.18	-2.98 ± 0.29
AUUAAGCAAUAUUACGGUAG	-4.09 ± 0.29	-2.57 ± 0.22
CUCUAGCAAUAUUACGGGUU	-4.28 ± 0.32	-3.31 ± 0.24
GCCCAGCAAUAUUACGGAGC	-4.06 ± 0.39	-2.17 ± 0.34
GGAGAGCAAUAUUACGUUAU	-3.27 ± 0.23	-2.98 ± 0.32
GCAAAGCAAUAUUACGCGGU	-4.16 ± 0.22	-2.67 ± 0.24
GUAUAGCAAUAUUACGGGAG	–	-1.77 ± 0.35
GCGGAGCAAUAUUACGCCCG	-1.19 ± 0.5	–
CACGAGCAAUAUUACGUGGG	-4.45 ± 0.29	-2.71 ± 0.18
GUCUAGCAAUAUUACGCGGG	-3.1 ± 0.19	-1.98 ± 0.17
GAUUAGCAAUAUUACGACGG	–	-2.39 ± 0.33
ACUCAGCAAUAUUACGGCUG	-2.36 ± 0.21	-2.86 ± 0.29
CAAAAGCAAUAUUACGCAUA	-3.58 ± 0.17	-1.77 ± 0.12
CGUAAGCAAUAUUACGAGGU	-3.63 ± 0.46	-1.71 ± 0.29
ACCCAGCAAUAUUACGUGGG	-3.34 ± 0.11	-2.3 ± 0.13

Sequence	self-splicing fitness (ln) (30 °C)	self-splicing fitness (ln) (37 °C)
GAGAAGCAAUAUUACGGGCC	-2.03 ± 0.22	-2.56 ± 0.41
CCGAAGCAAUAUUACGGGGC	-3.54 ± 0.24	-1.64 ± 0.24
UCUUAGCAAUAUUACGAAAU	-3.48 ± 0.33	-3.09 ± 0.35
UCCCAGCAAUAUUACGGAGA	-1.18 ± 0.084	-0.484 ± 0.11
GUAAAGCAAUAUUACGCGAA	-0.868 ± 0.08	-1.25 ± 0.1
CAAGAGCAAUAUUACGUUAA	-3.49 ± 0.35	-2.33 ± 0.22
ACUAAGCAAUAUUACGUACC	-1.05 ± 0.16	-0.715 ± 0.2
CUCUAGCAAUAUUACGUGGA	-3.43 ± 0.25	-2.17 ± 0.19
AACAAGCAAUAUUACGUAAU	-1.98 ± 0.074	-0.78 ± 0.08
ACAAAGCAAUAUUACGGCGA	-0.177 ± 0.072	0.19 ± 0.094
CUUAAGCAAUAUUACGACCA	-3.3 ± 0.4	-2.04 ± 0.4
GCAGAGCAAUAUUACGAGUU	-4.28 ± 0.16	-1.82 ± 0.095
CCUGAGCAAUAUUACGCUCC	–	-3.8 ± 0.33
ACAAAGCAAUAUUACGGGAA	-2.44 ± 0.18	-2.48 ± 0.17
UGUAAGCAAUAUUACGCUAA	-2.73 ± 0.21	-0.75 ± 0.15
CAAUAGCAAUAUUACGCGCU	-3.61 ± 0.18	-2.18 ± 0.18
UUUUAGCAAUAUUACGACCA	-0.399 ± 0.34	-0.577 ± 0.37
ACGGAGCAAUAUUACGGCCG	-1.98 ± 0.16	-2.03 ± 0.28
CUCAAGCAAUAUUACGUCUG	-4.24 ± 0.28	-1.36 ± 0.17
UCUCAGCAAUAUUACGGCAG	-3.36 ± 0.31	-0.98 ± 0.19
CGCCAGCAAUAUUACGCCGC	-2.72 ± 0.21	-1.39 ± 0.39
GGUGAGCAAUAUUACGGUUU	-2.12 ± 0.13	-1.25 ± 0.18
CAAAAGCAAUAUUACGUCGC	-4.14 ± 0.28	-2.35 ± 0.25
